From article PMC3946754, “Two-Stage pH Control Strategy Based on the pH Preference of Acetoin Reductase Regulates Acetoin and 2,3-Butanediol Distribution in Bacillus subtilis” (PLoS ONE, 2014)

What was measured:
[1] = substrate: NC(=O)c1ccc[n+]([C@@H]2O[C@H](COP(=O)(O)OP(=O)(O)OC[C@H]3O[C@@H](n4cnc5c(N)ncnc54)[C@H](O)[C@@H]3O)[C@@H](O)[C@H]2O)c1; experiment: NAD+ reduction assay, Lineweaver-Burk plot; assay type: biochemical, Bacillus subtilis; settings: oxidation, co-substrate 2,3-butanediol (standard assay 10 mM, pH 8.5), printed kcat/Km does not fit kcat and Km, varied: cofactor
[2] = substrate: CC(=O)C(C)O; experiment: NADH oxidation assay, Lineweaver-Burk plot; assay type: biochemical, Bacillus subtilis; settings: reduction, co-substrate NADH (standard assay 0.2 mM NADH, PBS pH 6.5, 25°C preincubation), stereoisomer not told, 25.0 °C
[3] = substrate: NC(=O)C1=CN([C@@H]2O[C@H](COP(=O)(O)OP(=O)(O)OC[C@H]3O[C@@H](n4cnc5c(N)ncnc54)[C@H](O)[C@@H]3O)[C@@H](O)[C@H]2O)C=CC1; experiment: NADH oxidation assay, Lineweaver-Burk plot; assay type: biochemical, Bacillus subtilis; settings: reduction, co-substrate acetoin (standard assay 10 mM, pH 6.5), printed kcat/Km does not fit kcat and Km, varied: cofactor
purified protein = substrate: CC(O)C(C)O; experiment: purified protein; settings: oxidation, co-substrate NAD+ (standard assay 1.2 mM NAD+, pH 8.5, 25°C preincubation), stereoisomer not told, printed kcat/Km does not fit kcat and Km

B1: AR/BDH (acetoin reductase/2,3-butanediol dehydrogenase) (Bacillus subtilis subsp. subtilis str. 168) (protein)
chain: MKAARWHNQKDIRIEHIEEPKTEPGKVKIKVKWCGICGSDLHEYLGGPIFIPVDKPHPLTNETAPVTMGHEFSGEVVEVGEGVENYKVGDRVVVEPIFATHGHQGAYNLDEQMGFLGLAGGGGGFSEYVSVDEELLFKLPDELSYEQGALVEPSAVALYAVRSSKLKAGDKAAVFGCGPIGLLVIEALKAAGATDIYAVELSPERQQKAEELGAIIVDPSKTDDVVAEIAERTGGGVDVAFEVTGVPVVLRQAIQSTTIAGETVIVSIWEKGAEIHPNDIVIKERTVKGIIGYRDIFPAVLSLMKEGYFSADKLVTKKIVLDDLIEEGFGALIKEKSQVKILVRPN
notes: full length, C-terminal His6 tag (from primer, not reported cut); pMA5-bdhA expressed in B. subtilis JNA 3-10; Ni-NTA and Superdex 200; subunit 38-39 kDa by SDS-PAGE
Km [1]: 80 ± 2 µM
Vmax [1]: 14 µM/min
kcat [1]: 0.0232 ± 0.000267 s⁻¹
Km [2]: 160 ± 5 µM
Vmax [2]: 5.54 µM/min
kcat [2]: 0.00567 ± 0.0002 s⁻¹
kcat/Km [2]: 35.5 M⁻¹ s⁻¹
Km [3]: 40 ± 1 µM
Vmax [3]: 14.2 µM/min
kcat [3]: 0.0235 ± 0.00035 s⁻¹
Km (purified protein): 260 ± 9 µM
Vmax (purified protein): 2.34 µM/min
kcat (purified protein): 0.00233 s⁻¹
